Assay results from patent US20240189439A1 (Novartis, published 2024).

Legend:
rat PMEL17 = rat PMEL17 (rat, UniProt D3ZED8 73-680); assay: FACS titration of IgG on HKB11-rat PMEL17 cells, Alexa Fluor detection antibody
Description: (§1) Purified IgGs were titrated on a variety of PMEL17 expressing and PMEL17 non expressing cell lines (for control) to determine EC50 values. Cells were harvested using Accutase, adjusted to ˜4×10^6 cells/ml into FACS buffer (PBS, 3% FCS and 0.02% Na-Azide) and kept on ice to avoid internalization. 15 μl of cell suspension/well were transferred into 384 well V-bottom plates (Greiner, Cat #781280) and incubated with 15 μl of IgGs at different concentrations (most commonly from 200 to 3.5×10-3 nM) for 1 hour at 4° C., gently shaking. Following incubation, cells were washed three times with FACS buffer. After each washing step, cells were centrifuged (250×g, 5 min, 4° C.) and carefully resuspended. 15 p of detection antibody conjugated to PE (PE-conjugated goat anti-human IgG, F(ab′)₂ fragment specific, 1:150 in FACS buffer; Jackson Immuno Research, #109-116-097) or Alexa Fluor (Alexa Fluor-conjugated goat anti-human IgG, F(ab′)2 fragment specific, 1:150 in FACS buffer; Jackson Immuno Research, #109-606-097) were added and samples were incubated for 45 minutes to 1 hour on ice in the dark, gently shaking. After 3 washing steps, cells were resuspended in 30 μl of FACS buffer and samples were measured using the IntelliCyt HTFC device. EC50 values were calculated using the Graphpad Prism software.

cyno PMEL17 = target: T1, cyno PMEL17 (cyno, UniProt A0A2K5WWN0 25-668); assay: FACS titration of IgG on HKB11-cyno-PMEL17 cells, Alexa Fluor detection antibody
T1 construct: whole, on cells; also called HKB11-cyno; HKB11-cyno-PMEL17
T1 sequence: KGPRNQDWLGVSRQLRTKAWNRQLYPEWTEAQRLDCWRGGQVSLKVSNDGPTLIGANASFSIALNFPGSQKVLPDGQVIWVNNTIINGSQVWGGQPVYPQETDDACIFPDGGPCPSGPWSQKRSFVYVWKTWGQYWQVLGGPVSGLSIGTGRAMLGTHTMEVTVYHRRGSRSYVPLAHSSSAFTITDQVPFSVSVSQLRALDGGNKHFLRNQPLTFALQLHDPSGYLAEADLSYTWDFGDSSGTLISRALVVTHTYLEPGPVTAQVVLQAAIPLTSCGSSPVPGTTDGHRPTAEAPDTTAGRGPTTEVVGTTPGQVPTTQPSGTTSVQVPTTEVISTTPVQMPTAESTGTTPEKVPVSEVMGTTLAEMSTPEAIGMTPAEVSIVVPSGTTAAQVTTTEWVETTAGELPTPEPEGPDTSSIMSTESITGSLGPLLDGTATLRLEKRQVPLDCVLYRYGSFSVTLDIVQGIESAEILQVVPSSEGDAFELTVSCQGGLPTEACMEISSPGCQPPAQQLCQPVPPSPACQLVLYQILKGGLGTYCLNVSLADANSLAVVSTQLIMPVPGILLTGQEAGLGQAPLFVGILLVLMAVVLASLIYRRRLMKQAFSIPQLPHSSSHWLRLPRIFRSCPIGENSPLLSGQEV
Description: as §1

mouse PMEL17 = target: T2, mouse PMEL17 (mouse, UniProt Q60696 24-626); assay: FACS titration of IgG on B16-F10 cells (mouse melanoma), Alexa Fluor detection antibody
T2 construct: whole, on cells; also called B16-F10 (mouse)
T2 sequence (looked up): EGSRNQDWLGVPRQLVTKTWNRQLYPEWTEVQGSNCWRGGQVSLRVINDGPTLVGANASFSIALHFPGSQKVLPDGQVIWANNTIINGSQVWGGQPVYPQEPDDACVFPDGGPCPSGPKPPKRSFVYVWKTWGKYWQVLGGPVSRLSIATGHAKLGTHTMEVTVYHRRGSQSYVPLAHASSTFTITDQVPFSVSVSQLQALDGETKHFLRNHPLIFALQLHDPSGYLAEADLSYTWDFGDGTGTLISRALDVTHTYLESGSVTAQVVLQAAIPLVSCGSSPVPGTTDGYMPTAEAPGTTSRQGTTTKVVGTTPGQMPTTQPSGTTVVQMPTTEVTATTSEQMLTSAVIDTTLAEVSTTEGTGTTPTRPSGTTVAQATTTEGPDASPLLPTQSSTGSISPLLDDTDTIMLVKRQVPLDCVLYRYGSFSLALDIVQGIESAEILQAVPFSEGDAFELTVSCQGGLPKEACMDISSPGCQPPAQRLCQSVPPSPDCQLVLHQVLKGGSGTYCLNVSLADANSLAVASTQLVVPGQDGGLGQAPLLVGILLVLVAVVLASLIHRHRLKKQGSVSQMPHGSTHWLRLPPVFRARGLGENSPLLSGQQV
Description: as §1

Sequence of rat PMEL17 (D3ZED8 entry or part of it): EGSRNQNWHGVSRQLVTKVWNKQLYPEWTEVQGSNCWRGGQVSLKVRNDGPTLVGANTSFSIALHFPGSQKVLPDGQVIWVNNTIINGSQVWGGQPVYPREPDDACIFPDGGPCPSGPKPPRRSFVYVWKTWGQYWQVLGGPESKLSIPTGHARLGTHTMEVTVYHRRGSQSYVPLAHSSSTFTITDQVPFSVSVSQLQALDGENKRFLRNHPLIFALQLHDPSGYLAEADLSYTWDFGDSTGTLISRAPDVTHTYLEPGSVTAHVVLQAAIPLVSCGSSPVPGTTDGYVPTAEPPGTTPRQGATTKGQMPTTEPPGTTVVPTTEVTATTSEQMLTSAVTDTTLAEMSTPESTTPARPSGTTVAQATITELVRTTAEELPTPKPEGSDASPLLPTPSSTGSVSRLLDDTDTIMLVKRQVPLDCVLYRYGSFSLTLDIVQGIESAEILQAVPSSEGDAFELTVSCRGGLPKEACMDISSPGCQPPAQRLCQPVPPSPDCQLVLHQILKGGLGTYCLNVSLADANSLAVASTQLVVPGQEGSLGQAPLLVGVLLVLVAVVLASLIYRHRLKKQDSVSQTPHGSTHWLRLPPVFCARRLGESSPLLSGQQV

| Binder | EC50 (rat PMEL17) [nM] | EC50 (cyno PMEL17) [nM] | EC50 (mouse PMEL17) [nM] |
| --- | --- | --- | --- |
| MOR024354 (antibody, V domains shown, Tested as purified human IgG) VH: QVQLLESGGGLVQPGGSLRLSCAASGFTFSSFGMSWVRQAPGKGLEWVSAISYSGSDTYYADSVKGRFTISRDNSKNTLYLQMNSLRAEDTAVYYCARDVGVMDYWGQGTLVTVSS VL: SYELTQPLSVSVALGQTARITCSGDNLGTYYAHWYQQKPGQAPVLVIYSQSHRPSGIPERFSGSNSGNTATLTISRAQAGDEADYYCGAWDAPSPELVFGGGTKLTVL | 2.4 | 2.1 | – |
| Y010356 (antibody, V domains shown, Tested as purified human IgG) VH: EVQLVESGGGLVKPGGSLRLSCAASGFTFSNYWISWVRQAPGKGLEWVGRIKSKTYGGTTDYAEPVKGRFTISRDDSKNTLYLQMNSLKTEDTAVYYCARVSGYYSHSGGFDVWGQGTLVTVSS VL: DIQMTQSPSSLSASVGDRVTITCRASQGISNYLAWYQQKPGKVPKLLIYAASTLQSGVPSRFSGSGSGTDFTLTISSLQPEDVATYYCQKTWRTPGTFGQGTKVEIK | 1.4 | 4.5 | 1.4 |
| Y010906 (antibody, V domains shown, Tested as purified human IgG) VH: EVQLVESGGGLVKPGGSLRLSCAASGFTFSNAWMSWVRQAPGKGLEWVGRIKSKTDAGTTDYAAPVKGRFTISRDDSKNTLYLQMNSLKTEDTAVYYCARDEYPWGWFDVWGQGTLVTVSS VL: DIQMTQSPSSVSASVGDRVTITCRASQGISSWLAWYQQKPGKAPKLLIYAASSLQSGVPSRFSGSGSGTDFTLTISSLQPEDFATYYCQQYIFYPLTFGQGTKVEIK | 21.7 | 2 | 140 |
| Y010910 (antibody, V domains shown, Tested as purified human IgG) VH: EVQLVESGGGLVKPGGSLRLSCAASGFTFSNAWMSWVRQAPGKGLEWVGRIKSKTDAGTTDYAAPVKGRFTISRDDSKNTLYLQMNSLKTEDTAVYYCARVASPSAPGGFDYWGQGTLVTVSS VL: DIQMTQSPSSLSASVGDRVTITCRASQGISNYLAWYQQKPGKVPKLLIYAASTLQSGVPSRFSGSGSGTDFTLTISSLQPEDVATYYCQQSLFAPFTFGQGTKVEIK | 13.7 | 3.5 | 41.1 |
| Y010903 (antibody, V domains shown, Tested as purified human IgG) VH: EVQLVESGGGLVKPGGSLRLSCAASGFTFSNAWMSWVRQAPGKGLEWVGRIKSKTDAGTTDYAAPVKGRFTISRDDSKNTLYLQMNSLKTEDTAVYYCARASHRLHSLFDVWGQGTLVTVSS VL: DIQMTQSPSTLSASVGDRVTITCRASQSISSWLAWYQQKPGKAPKLLIYDASSLESGVPSRFSGSGSGTEFTLTISSLQPEDFATYYCQQGLFYPHTFGQGTKVEIK | 5.6 | 2 | 928 |
| Y010355 (antibody, V domains shown, Tested as purified human IgG) VH: EVQLVESGGGLVKPGGSLRLSCAASGFTFSNYWISWVRQAPGKGLEWVGRIKSKTYGGTTDYAEPVKGRFTISRDDSKNTLYLQMNSLKTEDTAVYYCARTSRRSYAFDYWGQGTLVTVSS VL: DIQMTQSPSTLSASVGDRVTITCRASQSISSWLAWYQQKPGKAPKLLIYDASSLESGVPSRFSGSGSGTEFTLTISSLQPEDFATYYCQQITRYPVTFGQGTKVEIK | 0.8 | 3.9 | 0.8 |
| Y010900 (antibody, V domains shown, Tested as purified human IgG) VH: EVQLVESGGGLVKPGGSLRLSCAASGFTFSNAWMSWVRQAPGKGLEWVGRIKSKTDAGTTDYAAPVKGRFTISRDDSKNTLYLQMNSLKTEDTAVYYCARTIYPSAPSSSLDYWGQGTLVTVSS VL: DIQMTQSPSSLSASVGDRVTITCRASQGISNYLAWYQQKPGKVPKLLIYAASTLQSGVPSRFSGSGSGTDFTLTISSLQPEDVATYYCQQLIFFPLTFGQGTKVEIK | 9.3 | 1.2 | – |
| Y010417 (antibody, V domains shown, Tested as purified human IgG) VH: EVQLVQSGAEVKKPGESLKISCKGSGYSFTSYWIGWVRQMPGKGLEWMGIIYPGDSDTRYSPSFQGQVTISADKSISTAYLQWSSLKASDTAMYYCARGSSAASGLSGDLWGQGTLVTVSS VL: DIQMTQSPSSLSASVGDRVTITCRASQSISSYLNWYQQKPGKAPKLLIYAASSLQSGVPSRFSGSGSGTDFTLTISSLQPEDFATYYCQQDYYSPFTFGQGTKVEIK | – | 6.3 | – |
| Y010415 (antibody, V domains shown, Tested as purified human IgG) VH: not shown VL: DIQMTQSPSSLSASVGDRVTITCRASQSISSYLNWYQQKPGKAPKLLIYAASSLQSGVPSRFSGSGSGTDFTLTISSLQPEDFATYYCQQVYGSPPTFGQGTKVEIK | 0.4 | 5.4 | – |
| Y010429 (antibody, V domains shown, Tested as purified human IgG) VH: not shown VL: DIQMTQSPSSLSASVGDRVTITCRASQSISSYLNWYQQKPGKAPKLLIYAASSLQSGVPSRFSGSGSGTDFTLTISSLQPEDFATYYCQQVWYAPVTFGQGTKVEIK | 1.5 | 10.7 | 60.2 |
| MOR024353 (antibody, V domains shown, Tested as purified human IgG) VH: QVQLVQSGAEVKKPGSSVKVSCKASGGTFSDYAISWVRQAPGQGLEWMGGIIPIFGDANYAQKFQGRVTITADESTSTAYMELSSLRSEDTAVYYCAREGSSYFYMAYWGQGTLVTVSS VL: SYELTQPLSVSVALGQTARITCSGDNIGSKLASWYQQKPGQAPVLVIYDDSNRPSGIPERFSGSNSGNTATLTISRAQAGDEADYYCAATAGDRWAYVFGGGTKLTVL | 7.5 | 1.6 | – |
